This note sets out measurements from article PMC5342242, “Altering the N-terminal arms of the polymerase manager protein UmuD modulates protein interactions” (PLoS ONE, 2017).

Series [1] deals with T1, DNA polymerase III α subunit, full-length (E. coli, UniProt P10443 1-1160, in the FRET assay only: labeled with Alexa Fluor 647 C2-maleimide).
T1 construct: α polymerase subunit of DNA polymerase III, E. coli, full-length; Unlabelled in the tryptophan fluorescence titration; also called pol III α; full-length α; source: purified; as previously described [21]
T1 sequence (P10443 whole entry): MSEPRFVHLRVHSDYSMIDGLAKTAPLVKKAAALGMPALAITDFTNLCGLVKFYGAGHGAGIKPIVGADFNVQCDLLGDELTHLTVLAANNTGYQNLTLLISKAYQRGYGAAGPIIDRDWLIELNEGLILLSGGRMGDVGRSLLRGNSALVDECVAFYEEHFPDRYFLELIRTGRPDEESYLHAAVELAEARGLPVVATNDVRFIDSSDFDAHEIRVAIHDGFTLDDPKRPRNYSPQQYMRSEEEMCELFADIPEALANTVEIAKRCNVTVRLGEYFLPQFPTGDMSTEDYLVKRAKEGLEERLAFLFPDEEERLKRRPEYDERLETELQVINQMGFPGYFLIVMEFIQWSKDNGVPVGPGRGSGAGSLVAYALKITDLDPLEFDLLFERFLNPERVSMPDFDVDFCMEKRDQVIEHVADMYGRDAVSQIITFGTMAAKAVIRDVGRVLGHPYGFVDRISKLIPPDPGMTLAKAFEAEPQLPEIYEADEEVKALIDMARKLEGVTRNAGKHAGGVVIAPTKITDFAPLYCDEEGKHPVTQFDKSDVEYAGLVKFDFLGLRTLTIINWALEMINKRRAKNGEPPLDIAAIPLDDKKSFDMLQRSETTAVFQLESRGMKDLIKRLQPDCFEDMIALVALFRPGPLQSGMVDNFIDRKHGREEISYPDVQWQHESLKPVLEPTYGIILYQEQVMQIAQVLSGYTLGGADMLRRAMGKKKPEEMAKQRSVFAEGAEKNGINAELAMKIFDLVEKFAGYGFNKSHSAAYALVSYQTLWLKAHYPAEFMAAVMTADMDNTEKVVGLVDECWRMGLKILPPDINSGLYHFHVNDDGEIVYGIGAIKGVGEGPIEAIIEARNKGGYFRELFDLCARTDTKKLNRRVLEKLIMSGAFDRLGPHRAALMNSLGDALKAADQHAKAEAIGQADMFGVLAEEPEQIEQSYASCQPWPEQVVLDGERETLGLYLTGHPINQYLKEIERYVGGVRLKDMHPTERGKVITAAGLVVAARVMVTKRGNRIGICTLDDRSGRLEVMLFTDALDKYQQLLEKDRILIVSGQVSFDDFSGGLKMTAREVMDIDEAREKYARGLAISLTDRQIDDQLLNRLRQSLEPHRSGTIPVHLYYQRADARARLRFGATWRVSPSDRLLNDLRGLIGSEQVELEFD
Kind of series: other fluorescence titration; intrinsic tryptophan fluorescence of α; UmuD titrated into a solution of α; equilibrium Kd. The settings on record: both partners purified.

In series [2] the target is T2, DNA polymerase III α subunit truncation α917–1160 (E. coli, UniProt P10443 917-1160).
T2 construct: α polymerase subunit of DNA polymerase III, E. coli, residues 917–1160; also called C-terminal fragment of α; source: described previously [21]
T2 sequence (P10443 917-1160): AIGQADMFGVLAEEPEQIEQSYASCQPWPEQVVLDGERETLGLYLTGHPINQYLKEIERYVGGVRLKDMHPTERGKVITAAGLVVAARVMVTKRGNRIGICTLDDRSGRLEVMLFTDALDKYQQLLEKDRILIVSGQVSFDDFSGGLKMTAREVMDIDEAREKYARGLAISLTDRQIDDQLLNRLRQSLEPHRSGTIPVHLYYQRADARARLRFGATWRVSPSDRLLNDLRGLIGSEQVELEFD
Described as above. The settings on record: both partners purified.

For series [3], the target named is T3, DNA polymerase III α subunit truncation α1–280 (E. coli, UniProt P10443 1-280).
T3 construct: α polymerase subunit of DNA polymerase III, E. coli, residues 1–280; also called N-terminal domain of α; PHP domain; source: described previously [21]
T3 sequence (P10443 1-280): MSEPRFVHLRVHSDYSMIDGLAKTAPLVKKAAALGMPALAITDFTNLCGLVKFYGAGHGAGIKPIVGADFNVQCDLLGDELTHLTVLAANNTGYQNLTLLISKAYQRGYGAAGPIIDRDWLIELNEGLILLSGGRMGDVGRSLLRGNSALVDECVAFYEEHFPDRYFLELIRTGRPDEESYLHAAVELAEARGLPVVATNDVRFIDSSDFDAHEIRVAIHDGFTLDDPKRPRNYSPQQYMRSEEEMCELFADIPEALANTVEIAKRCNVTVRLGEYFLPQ
The series is described as above. The settings on record: both partners purified.

Series [4] deals with the molecule itself. The series can be described thus: cross-linking; 10 mM bis(maleimido)hexane (BMH), 40 μM protein, 10 min at room temperature; cross-linked dimers seen by Coomassie-stained SDS-PAGE.

B1: UmuD 18 S60A (domain or fragment, E. coli, UniProt P0AG11 18-139, looked up)
chain: FSDLVQCGFPSPAADYVEQRIDLNQLLIQHPSATYFVKASGDAMIDGGISDGDLLIVDSAITASHGDIVIAAVDGEFTVKKLQLRPTVQLIPMNSAYSPITISSEDTLDVFGVVIHVVKAMR
notes: UmuD, E. coli, lacking the N-terminal 17 residues (Δ1–17) of the 139-residue full-length protein; non-cleavable active-site variant S60A; Plasmid pSG5 derivative; also called UmuD Δ1–17 S60A; source: constructed in pSG5, expressed and purified as previously described [33, 34]
Broadly, the Kd is the constant that tells how readily two partners part at equilibrium. Read a high Kd as a looser complex. In the case of B1, the Kd in series [1] was 12.2 ± 0.2 µM; in series [2] it was 3.6 ± 0.4 µM; in series [3] it was 5.9 ± 0.9 µM. Further, the percent cross-linked dimers in series [4] stood at 39%.

B2: UmuD 8 S60A (domain or fragment, E. coli, UniProt P0AG11 8-139, looked up)
chain: DLREIVTFPLFSDLVQCGFPSPAADYVEQRIDLNQLLIQHPSATYFVKASGDAMIDGGISDGDLLIVDSAITASHGDIVIAAVDGEFTVKKLQLRPTVQLIPMNSAYSPITISSEDTLDVFGVVIHVVKAMR
notes: UmuD, E. coli, lacking the N-terminal 7 residues (Δ1–7) of the 139-residue full-length protein; non-cleavable active-site variant S60A; Plasmid pSG5 derivative; also called UmuD Δ1–7 S60A; source: constructed in pSG5, expressed and purified as previously described [33, 34]
Regarding B2, the Kd is 8.1 ± 0.9 µM in series [1], 0.2 ± 0.4 µM in series [2] and 3.5 ± 0.8 µM in series [3]. The molecule also showed a percent cross-linked dimers in series [4] of 32%.

B3: UmuD 3A (natural protein, E. coli, UniProt P0AG11 1-139, looked up)
chain: MLFIKPADLREIVAFPAASDLVQCGFPSPAADYVEQRIDLNQLLIQHPSATYFVKASGDSMIDGGISDGDLLIVDSAITASHGDIVIAAVDGEFTVKKLQLRPTVQLIPMNSAYSPITISSEDTLDVFGVVIHVVKAMR
notes: UmuD, E. coli, full-length arms, three alanine mutations T14A L17A F18A; also called UmuD T14A L17A F18A; source: purified; not further stated
Molecule B3 had a percent cross-linked dimers in series [4] of 41%.

B4: wild-type UmuD (natural protein, E. coli, UniProt P0AG11 1-139, looked up)
chain: MLFIKPADLREIVTFPLFSDLVQCGFPSPAADYVEQRIDLNQLLIQHPSATYFVKASGDSMIDGGISDGDLLIVDSAITASHGDIVIAAVDGEFTVKKLQLRPTVQLIPMNSAYSPITISSEDTLDVFGVVIHVVKAMR
notes: UmuD, E. coli, full-length, 139 residues; also called WT UmuD; full-length UmuD; source: purified; expression from pSG5 as previously described [33, 34]
In turn, B4 showed a percent cross-linked dimers in series [4] of 25%.

B5: UmuD S60A C24A A7C (natural protein, E. coli, UniProt P0AG11 1-139, looked up)
chain: MLFIKPCDLREIVTFPLFSDLVQAGFPSPAADYVEQRIDLNQLLIQHPSATYFVKASGDAMIDGGISDGDLLIVDSAITASHGDIVIAAVDGEFTVKKLQLRPTVQLIPMNSAYSPITISSEDTLDVFGVVIHVVKAMR
notes: UmuD, E. coli, with the full-length arm; single cysteine moved from position 24 to position 7; S60A; also called UmuD A7C C24A S60A; source: purified; not further stated
With B5, the percent cross-linked dimers in series [4] turned out to be 71%.

B6: UmuD S60A (natural protein, E. coli, UniProt P0AG11 1-139, looked up)
chain: MLFIKPADLREIVTFPLFSDLVQCGFPSPAADYVEQRIDLNQLLIQHPSATYFVKASGDAMIDGGISDGDLLIVDSAITASHGDIVIAAVDGEFTVKKLQLRPTVQLIPMNSAYSPITISSEDTLDVFGVVIHVVKAMR
notes: UmuD, E. coli, full-length 139 residues, non-cleavable active-site variant S60A; also called full-length UmuD-S60A; active site variant UmuD S60A; source: purified; expression from pSG5 as previously described [33, 34]
With B6, the percent cross-linked dimers in series [4] was determined as 31%.
